Data set [1] deals with PIP4K2A G131L Y138F (kinase dead) (Homo sapiens). The data set is described as follows: EMSA. Conditions: EMSA 60 min 16 C, 5 ug yeast tRNA, 40 U RNase inhibitor; fluorescent: 500 mM NaCl, 10 mM Tris pH 7.5, 10% glycerol; radioactive: 30 mM KCl, 1 mM MgCl2, 40 mM …. (In EMSA bound probe runs differently from free probe, usually more slowly.)
The subject of data set [2] is PIP4K2A (WT) (Homo sapiens). The data set is described as follows: EMSA. The following applies: EMSA 60 min 16 C, 5 ug yeast tRNA, 40 U RNase inhibitor; fluorescent: 500 mM NaCl, 10 mM Tris pH 7.5, 10% glycerol; radioactive: 30 mM KCl, 1 mM MgCl2, 40 mM ….

By Kd is commonly meant the equilibrium constant for the complex coming apart. Take “RAD51-short (5' proximal 35 bases of RAD51 3'UTR)”: the values for the Kd in data set [1] and in data set [2] were 850 nM and 500 nM, respectively.

Regarding RAD51 3'UTR, the dissociation constant (Kd) in data set [2] worked out at 750 nM.

The values above are taken from publication PMC8194828.
